Data from patent US20190092852A1 (Genentech, published 2019).

Columns and labels:
[1] = target: T1, human IL-13 (Peprotech) (human, UniProt P35225 35-146); experiment: SPR, BIACORE 3000, antibody captured on anti-human Fab, 25 C, 1:1 Langmuir model; lot 2
Experimental: (§1) The binding kinetics of the bispecific antibody 10C12-IL13 KIH IgG4 to human IL-33, cyno IL-33, and human IL-13 was assessed using SPR on a BIACORE® 3000 (GE Healthcare). Anti-human Fab (GE Healthcare) was immobilized on a CM5 sensor chip via amine-based coupling according to the manufacturer's protocol. The bispecific antibody was captured and binding was measured to human IL-33 (Genentech), cyno IL-33 (Genentech), and human IL-13 (Peprotech). […] Sensograms for binding of cytokine were recorded using an injection time of 2 min with a flow rate of 30 μl/min, at a temperature of 25° C., and with a running buffer of 10 mM HEPES, pH 7.4, 150 mM NaCl, 3 mM EDTA, and 0.005% TWEEN®-20. After injection, disassociation of the ligand from the antibody was monitored for 600 sec in running buffer. The surface was regenerated between binding cycles with a 40 μl injection of 10 mM Glycine-HCl pH 2.1. After subtraction of a blank which contained running buffer only, sensograms observed for cytokine binding to the bispecific antibody were analyzed using a 1:1 Langmuir binding model with software supplied by the manufacturer to calculate the kinetics and binding constants, including the dissociation constant (KD).

[2] = target: T2, human IL-33 (construct not stated) (human, UniProt O95760 112-270); experiment: as above
T2 construct: also called human IL-33 (Genentech); recombinant human IL33
T2 sequence (looked up): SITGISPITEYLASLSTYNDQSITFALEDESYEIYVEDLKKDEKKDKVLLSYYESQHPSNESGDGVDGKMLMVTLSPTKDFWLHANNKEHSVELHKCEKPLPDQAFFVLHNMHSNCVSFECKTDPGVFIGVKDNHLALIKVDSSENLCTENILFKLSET
Experimental: as §1

[3] = target: T3, cyno IL-33 (construct not stated) (cynomolgus monkey, UniProt A0A2K5W3I1 112-269); experiment: as above
T3 construct: also called cynomolgus IL-33; cyno IL-33 (Genentech)
T3 sequence: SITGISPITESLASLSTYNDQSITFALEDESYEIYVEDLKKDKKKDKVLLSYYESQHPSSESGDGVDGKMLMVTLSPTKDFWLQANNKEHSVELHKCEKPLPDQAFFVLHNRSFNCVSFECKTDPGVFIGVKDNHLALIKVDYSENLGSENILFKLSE
Experimental: as §1

[4] = target: T2, human IL-33 (construct not stated); experiment: cell-based or functional assay
[5] = target: T1, human IL-13 (Peprotech); experiment: SPR, BIACORE 3000, antibody captured on anti-human Fab, 25 C, 1:1 Langmuir model; lot 3
Experimental: as §1

[6] = target: T2, human IL-33 (construct not stated); experiment: as above
Experimental: as §1

[7] = target: T3, cyno IL-33 (construct not stated); experiment: as above
Experimental: as §1

[8] = target: T4, human IL-33 N-His (human); experiment: cell-based or functional assay
T4 chain: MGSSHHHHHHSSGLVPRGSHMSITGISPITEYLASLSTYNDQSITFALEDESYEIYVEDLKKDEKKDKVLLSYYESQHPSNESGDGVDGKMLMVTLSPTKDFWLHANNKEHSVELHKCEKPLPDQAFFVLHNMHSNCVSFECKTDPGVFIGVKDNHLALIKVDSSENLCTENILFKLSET

[9] = target: T1, human IL-13 (Peprotech); experiment: SPR Biacore 3000, captured by anti-human Fab, 25 C, mean of three lots
Experimental: (§2) The binding kinetics of the bispecific antibody 10C12-IL-13 KIH IgG4 to human IL-33, cyno IL-33, and human IL-13 was assessed using BIACORE® 3000 SPR (FIG. 20).
as §1

[10] = target: T2, human IL-33 (construct not stated); experiment: as above
Experimental: as §2, §1

[11] = target: T3, cyno IL-33 (construct not stated); experiment: as above
Experimental: as §2, §1

[12] = target: T1, human IL-13 (Peprotech); experiment: SPR, BIACORE 3000, antibody captured on anti-human Fab, 25 C, 1:1 Langmuir model; lot 1
Experimental: as §1

[13] = target: T2, human IL-33 (construct not stated); experiment: as above
Experimental: as §1

[14] = target: T3, cyno IL-33 (construct not stated); experiment: as above
Experimental: as §1

T1 sequence (P35225 35-146 limits assumed): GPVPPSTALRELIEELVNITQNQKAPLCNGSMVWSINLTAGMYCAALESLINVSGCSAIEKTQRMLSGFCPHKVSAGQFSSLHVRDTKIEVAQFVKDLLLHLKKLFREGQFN

B1: 10C12.38.H6.87Y.58I/IL-13 IgG4 (bispecific antibody)
heavy 1: EVQLVESGGGLVQPGGSLRLSCAASGFTFSSFSMSWVRQAPGKGLEWVATISGGKTFTDYVDSVKGRFTISRDDSKNTLYLQMNSLRAEDTAVYYCTRANYGNWFFEVWGQGTLVTVSSASTKGPSVFPLAPCSRSTSESTAALGCLVKDYFPEPVTVSWNSGALTSGVHTFPAVLQSSGLYSLSSVVTVPSSSLGTKTYTCNVDHKPSNTKVDKRVESKYGPPCPPCPAPEFLGGPSVFLFPPKPKDTLMISRTPEVTCVVVDVSQEDPEVQFNWYVDGVEVHNAKTKPREEQFNSTYRVVSVLTVLHQDWLNGKEYKCKVSNKGLPSSIEKTISKAKGQPREPQVYTLPPSQEEMTKNQVSLSCAVKGFYPSDIAVEWESNGQPENNYKTTPPVLDSDGSFFLVSRLTVDKSRWQEGNVFSCSVMHEALHNHYTQKSLSLSLG
light 1: EIVLTQSPATLSLSPGERATLSCRASESVAKYGLSLLNWFQQKPGQPPRLLIFAASNRGSGIPARFSGSGSGTDFTLTISSLEPEDFAVYYCQQSKEVPFTFGQGTKVEIKRTVAAPSVFIFPPSDEQLKSGTASVVCLLNNFYPREAKVQWKVDNALQSGNSQESVTEQDSKDSTYSLSSTLTLSKADYEKHKVYACEVTHQGLSSPVTKSFNRGEC
heavy 2: not shown
light 2: DIVLTQSPDSLSVSLGERATINCRASKSVDSYGNSFMHWYQQKPGQPPKLLIYLASNLESGVPDRFSGSGSGTDFTLTISSLQAEDVAVYYCQQNNEDPRTFGGGTKVEIKRTVAAPSVFIFPPSDEQLKSGTASVVCLLNNFYPREAKVQWKVDNALQSGNSQESVTEQDSKDSTYSLSSTLTLSKADYEKHKVYACEVTHQGLSSPVTKSFNRGEC
notes: Knob-in-hole human IgG4 made in E. coli: anti-IL-33 arm as hole, anti-IL-13 arm (lebrikizumab CDRs; Q1E heavy, M4L light) as knob; also called 10C12-IL-13 KIH IgG4; 10C12-IL13 KIH IgG4
For B1, the Kd [1] was < 10 pM, the koff [1] was 4e-06 s⁻¹ and the kon [1] was 1.47e+06 M⁻¹ s⁻¹. For the same binder, the Kd [2] was 26 pM, the koff [2] was 3e-05 s⁻¹ and the kon [2] was 1.14e+06 M⁻¹ s⁻¹. It also gave a Kd [3] of 62 pM, a koff [3] of 4e-05 s⁻¹ and a kon [3] of 650000 M⁻¹ s⁻¹. For the same binder, the “IC50 (read off the curve); phospho-p38 MFI in CD123+ basophils (average from 2 donors), 10 ng/ml IL-33” value [4] was ~500 pM, the Kd [5] was < 10 pM and the koff [5] was 6e-06 s⁻¹. The kon [5] was 1.45e+06 M⁻¹ s⁻¹, the Kd [6] was 41 pM and the koff [6] was 4e-05 s⁻¹. It also gave a kon [6] of 990000 M⁻¹ s⁻¹, a Kd [7] of 59 pM and a koff [7] of 4.1e-05 s⁻¹. The kon [7] was 700000 M⁻¹ s⁻¹, the “IC50; SEAP reporter, HEK-BLUE IL-33 cells, 15 pM human IL-33 N-His, 20 h” value [8] was 25.4 pM and the Kd [9] was < 10 pM. For the same binder, the Kd [10] was 25 pM, the Kd [11] was 76 pM and the Kd [12] was < 10 pM. The koff [12] was 2e-06 s⁻¹, the kon [12] was 1.49e+06 M⁻¹ s⁻¹ and the Kd [13] was 10 pM. For the same binder, the koff [13] was 1.1e-05 s⁻¹, the kon [13] was 1.1e+06 M⁻¹ s⁻¹ and the Kd [14] was 107 pM. The koff [14] was 7.2e-05 s⁻¹ and the kon [14] was 670000 M⁻¹ s⁻¹.
